Blank lines part the entries; values can stand above or below the binder they belong to. Starred links: 1 amine or outer side, 2 acyl side, 3 side chain; linkers in the order of their positions; H or OH if unused. Positions of bridges follow the written chain, without caps; N, C: chain ends. Non-standard residues stand in square brackets, D forms with d. Primed or numbered codes have the meaning given here. *: point of attachment. Aph(2Thz) = 4-aminophenylalanine with 1,3-thiazole-2-carbonyl on the ring amine, O=C(Nc1ccc(C[C@H](N[*:1])C(=O)[*:2])cc1)c1nccs1; 3MeBn = 3-methylbenzylidene (m-xylene unit) bridging two Cys S atoms via thioethers, from alpha,alpha'-dibromo-m-xylene; Aph(iNic) = 4-aminophenylalanine with isonicotinoyl on the ring amine, O=C(Nc1ccc(C[C@H](N[*:1])C(=O)[*:2])cc1)c1ccncc1; Aph(Bz) = 4-aminophenylalanine with benzoyl on the ring amine, O=C(Nc1ccc(C[C@H](N[*:1])C(=O)[*:2])cc1)c1ccccc1; Phe(3-NHCO(CH2)3SO2NH2) = N[C@@H](Cc1cccc(NC(=O)CCCS(N)(=O)=O)c1)C(=O)O; APAc″ = 2-(4-(amino)piperidin-1-yl)acetic acid, NC1CCN(CC(=O)*)CC1; DOTA = O=C(O)CN1CCN(CC(=O)O)CCN(CC(=O)*)CCN(CC(=O)O)CC1; Pyridine(3,5-bisCH2) = c1ncc(C[*:2])cc1C[*:1]; Acetyl(2-(piperazin-1-yl)) = O=C(CN1CCNCC1)*; mXylylene = c1cc(C[*:1])cc(C[*:2])c1; Dab = NCC[C@H](N)C(=O)O; Thp = NC1(C(=O)O)CCOCC1; Dap = NC[C@H](N)C(=O)O
What was measured:
[1] = molecular target: human carbonic anhydrase 9 (CAIX) (human, UniProt Q16790 38-459); assay: FACS competition on HT-29 cells, competitor tracer 3BP-2776; category C = pIC50 6.1-7.0
Protocol: CAIX-expressing human HT-29 colorectal cancer cells (DSMZ, RRID: CVCL_0320) were cultured in McCoys's 5A modified medium (Biochrom, #F1015) including 10% fetal calf serum (FCS), 2 mM L-glutamine, 100 U/ml penicillin and 100 μg/mL streptomycin. Cells were detached with Accutase (Biolegend, #423201) and washed in FACS buffer (PBS including 1% FCS). Cells were diluted in FACS buffer to a final concentration of 500.000 cells per ml. 200 μL of the cell suspension were transferred to a u-shaped non-binding 96-well plate (Greiner) and cells were washed in ice-cold FACS buffer.
When biotinylated compounds were used an additional incubation step with 1 μg/mL APC-Streptavidin (Miltenyi; #130-106-791) in 50 μL FACS buffer for 30 minutes on ice was performed.
Cells were washed twice with ice-cold FACS buffer and analyzed in an Attune NxT flow cytometer (Thermo Fisher). Median fluorescence intensities (MFI) of the APC/Cy5-channel were calculated by Attune NxT software.

[2] = molecular target: T1, human carbonic anhydrase 4 (CAIV), biotinylated (Sino Biological Cat #10472-H08H) (human, UniProt P22748 19-283, biotinylated (sites not given)); assay: SPR (Biacore T200), biotinylated CAIV captured with Biotin CAPture Kit; limit of the category in which no binding is told
T1 construct: Bought protein, biotinylated and captured with the Biotin CAPture Kit; also called hCAIV-bio; carbonic anhydrase IV
T1 sequence (P22748 19-283 limits assumed): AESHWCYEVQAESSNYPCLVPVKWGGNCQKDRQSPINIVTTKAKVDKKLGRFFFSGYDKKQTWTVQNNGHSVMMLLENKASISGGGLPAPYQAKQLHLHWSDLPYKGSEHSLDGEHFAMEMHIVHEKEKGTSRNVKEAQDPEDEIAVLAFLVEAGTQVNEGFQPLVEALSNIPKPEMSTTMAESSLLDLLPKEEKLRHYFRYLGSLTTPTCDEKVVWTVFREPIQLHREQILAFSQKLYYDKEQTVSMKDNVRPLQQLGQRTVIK

[3] = molecular target: T2, human carbonic anhydrase 14 (CAXIV), biotinylated (Sino Biological Cat #10458-H08H) (human, UniProt Q9ULX7 16-290, biotinylated (sites not given)); assay: SPR (Biacore T200), biotinylated CAXIV captured with Biotin CAPture Kit; limit of the category in which no binding is told
T2 construct: Bought protein, biotinylated and captured with the Biotin CAPture Kit; also called hCAXIV-bio; carbonic anhydrase XIV
T2 sequence (Q9ULX7 16-290 limits assumed): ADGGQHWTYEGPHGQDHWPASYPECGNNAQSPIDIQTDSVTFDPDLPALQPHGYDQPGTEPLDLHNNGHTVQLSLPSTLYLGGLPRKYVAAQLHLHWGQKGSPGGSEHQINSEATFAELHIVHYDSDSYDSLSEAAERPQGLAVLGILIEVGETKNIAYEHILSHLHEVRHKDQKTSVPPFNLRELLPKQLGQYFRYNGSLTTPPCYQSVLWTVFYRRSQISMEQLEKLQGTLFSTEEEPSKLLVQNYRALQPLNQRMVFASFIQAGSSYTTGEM

[4] = molecular target: T3, human carbonic anhydrase 12 (CAXII), biotinylated (Sino Biological Cat #10617-H08H) (human, UniProt O43570 25-301, biotinylated (sites not given)); assay: SPR (Biacore T200), biotinylated CAXII captured with Biotin CAPture Kit; limit of the category in which no binding is told
T3 construct: Bought protein, biotinylated and captured with the Biotin CAPture Kit; also called hCAXII-bio; carbonic anhydrase XII
T3 sequence (O43570 25-301 limits assumed): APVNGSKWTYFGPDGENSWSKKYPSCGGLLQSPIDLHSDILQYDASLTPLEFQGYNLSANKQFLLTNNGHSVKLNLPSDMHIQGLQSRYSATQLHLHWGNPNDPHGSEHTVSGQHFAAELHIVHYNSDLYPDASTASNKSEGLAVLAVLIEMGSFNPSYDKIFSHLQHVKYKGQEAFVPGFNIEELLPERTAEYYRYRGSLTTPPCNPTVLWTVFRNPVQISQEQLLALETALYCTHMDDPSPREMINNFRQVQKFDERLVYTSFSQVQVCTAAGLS

B1: 3BP-4043 (peptide)
peptide: Ac-VYCE[dP]KWL[dD]WSC-NH2
modifications: linker 3-12 via mXylylene; lactam 6-9
SMILES: CC(=O)N[C@H](C(=O)N[C@@H](Cc1ccc(O)cc1)C(=O)N[C@H]1CSCc2cccc(c2)CSC[C@@H](C(N)=O)NC(=O)[C@H](CO)NC(=O)[C@H](Cc2c[nH]c3ccccc23)NC(=O)[C@H]2CC(=O)NCCCC[C@H](NC(=O)[C@H]3CCCN3C(=O)[C@H](CCC(=O)O)NC1=O)C(=O)N[C@@H](Cc1c[nH]c3ccccc13)C(=O)N[C@@H](CC(C)C)C(=O)N2)C(C)C
- pIC50 [1]: 6.1 to 7 pic50

Binder: {DOTA-APAc″}-VYCE[dP]D[Aph(Bz)]LTWSC-NH2 (linker 3-12 via mXylylene) [3BP-4171]
- pIC50 [1]: 6.1 to 7 pic50

Binder: {DOTA-APAc″}-VYCE[dP]DWLTWSC-NH2 (linker 3-12 via Pyridine(3,5-bisCH2)) [3BP-4141]
- pIC50 [1]: 6.1 to 7 pic50

B3: 3BP-3583: DOTA-APAc-Val-Tyr-[Cys(3MeBn)-Glu-pro-Asp-Trp-Leu-Thr-Trp-Ser-Cys]-NH2 (peptide)
peptide: {DOTA-APAc″}-VYCE[dP]DWLTWSC-NH2
modifications: linker 3-12 via mXylylene
notes: Cyclic peptide with uncomplexed DOTA; also called DPI-3583
- pKD [2]: < 6
- pKD [3]: < 6
- pKD [4]: < 6

B4: 3BP-4452: DOTA-PPAc-Gln-[Cys(3MeBn)-Glu-pro-Asp-Af3(Cpsu)-Leu-Thr-Trp-Ser-Cys]-NH2 (peptide)
peptide: {DOTA-Acetyl(2-(piperazin-1-yl))}-QCE[dP]D[Phe(3-NHCO(CH2)3SO2NH2)]LTWSC-NH2
modifications: linker 2-11 via 3MeBn
notes: Cyclic peptide with uncomplexed DOTA; also called DPI-4452
- pKD [2]: < 6
- pKD [3]: < 6
- pKD [4]: < 6

B5: 3BP-4050 (peptide)
peptide: Ac-VYCE[dP][Dab]WLDWSC-NH2
modifications: linker 3-12 via mXylylene; lactam 6-9
SMILES: CC(=O)N[C@H](C(=O)N[C@@H](Cc1ccc(O)cc1)C(=O)N[C@H]1CSCc2cccc(c2)CSC[C@@H](C(N)=O)NC(=O)[C@H](CO)NC(=O)[C@H](Cc2c[nH]c3ccccc23)NC(=O)[C@@H]2CC(=O)NCC[C@H](NC(=O)[C@H]3CCCN3C(=O)[C@H](CCC(=O)O)NC1=O)C(=O)N[C@@H](Cc1c[nH]c3ccccc13)C(=O)N[C@@H](CC(C)C)C(=O)N2)C(C)C
- pIC50 [1]: 6.1 to 7 pic50

More lines, now with the values ahead:

- pIC50 [1]: 6.1 to 7 pic50
Binder: {DOTA-APAc″}-VYCE[dP]D[Aph(iNic)]LTWSC-NH2 (linker 3-12 via mXylylene) [3BP-4183]

- pKD [2]: < 6
- pKD [3]: < 6
- pKD [4]: < 6
B2: 3BP-4174: DOTA-APAc-Val-{Asp-[Cys(3MeBn)-Glu-pro-Asp-Trp-Leu-Thr-Trp-Dap}-Cys]-NH2 (peptide)
peptide: {DOTA-APAc″}-VDCE[dP]DWLTW[Dap]C-NH2
modifications: lactam 2-11; linker 3-12 via mXylylene
notes: Bicyclic peptide with uncomplexed DOTA; also called DPI-4174

- pIC50 [1]: 6.1 to 7 pic50
Binder: {DOTA-APAc″}-VYCE[dP]D[Aph(2Thz)]LTWSC-NH2 (linker 3-12 via mXylylene) [3BP-4180]

- pIC50 [1]: 6.1 to 7 pic50
B6: 3BP-3962 (peptide)
peptide: Ac-VYCE[dP]KW[Thp]EWSC-NH2
modifications: linker 3-12 via mXylylene; lactam 6-9
SMILES: CC(=O)N[C@H](C(=O)N[C@@H](Cc1ccc(O)cc1)C(=O)N[C@H]1CSCc2cccc(c2)CSC[C@@H](C(N)=O)NC(=O)[C@H](CO)NC(=O)[C@H](Cc2c[nH]c3ccccc23)NC(=O)[C@@H]2CCC(=O)NCCCC[C@H](NC(=O)[C@H]3CCCN3C(=O)[C@H](CCC(=O)O)NC1=O)C(=O)N[C@@H](Cc1c[nH]c3ccccc13)C(=O)NC1(CCOCC1)C(=O)N2)C(C)C
